Reference: patent US11504441B2, “Radiolabeled compounds targeting the prostate-specific membrane antigen” (PROVINCIAL HEALTH SERVICES AUTHORITY, priority 2019, dated 2022)

Experiment: in vivo
Parameters: species or system mice
Conditions: male, NODSCID 1L2RγKO, mouse, iv, total radioactivity

## COc1ccc(CCCC(=O)NCC(=O)N[C@@H](CCCCNC(=O)CN2CCN(CC(=O)O)CCN(CC(=O)O)CCN(CC(=O)O)CC2)C(=O)NC[C@H]2CC[C@H](C(=O)N[C@@H](Cc3c4ccccc4cc4ccccc34)C(=O)NCCCC[C@H](NC(=O)N[C@@H](CCCC(=O)O)C(=O)O)C(=O)O)CC2)cc1 [177Lu-HTK03170, metal not drawn]
Adrenal glands uptake
  tissue uptake at 1 h: 3.34 ± 0.45 %ID/g
  tissue uptake at 4 h: 1.78 ± 0.45 %ID/g
  tissue uptake at 24 h: 0.5 ± 0.16 %ID/g
  tissue uptake at 72 h: 0.27 ± 0.11 %ID/g
  tissue uptake at 120 h: 0.22 ± 0.18 %ID/g
Blood uptake
  tissue uptake at 1 h: 16.9 ± 1.97 %ID/g
  tissue uptake at 4 h: 8.34 ± 1.67 %ID/g
  tissue uptake at 24 h: 0.59 ± 0.13 %ID/g
  tissue uptake at 72 h: 0.06 ± 0.02 %ID/g
  tissue uptake at 120 h: 0.02 ± 0.01 %ID/g
Bone uptake
  tissue uptake at 1 h: 0.89 ± 0.27 %ID/g
  tissue uptake at 4 h: 0.45 ± 0.13 %ID/g
  tissue uptake at 24 h: 0.06 ± 0.04 %ID/g
  tissue uptake at 72 h: 0.03 ± 0.02 %ID/g
  tissue uptake at 120 h: 0.02 ± 0.01 %ID/g
Brain uptake
  tissue uptake at 1 h: 0.23 ± 0.04 %ID/g
  tissue uptake at 4 h: 0.13 ± 0.03 %ID/g
  tissue uptake at 24 h: 0.02 ± 0.01 %ID/g
  tissue uptake at 72 h: 0.01 %ID/g
Fat uptake
  tissue uptake at 1 h: 1.38 ± 0.45 %ID/g
  tissue uptake at 4 h: 0.6 ± 0.13 %ID/g
  tissue uptake at 24 h: 0.12 ± 0.04 %ID/g
  tissue uptake at 72 h: 0.04 ± 0.02 %ID/g
  tissue uptake at 120 h: 0.03 ± 0.03 %ID/g
Heart uptake
  tissue uptake at 1 h: 3.6 ± 0.52 %ID/g
  tissue uptake at 4 h: 1.91 ± 0.4 %ID/g
  tissue uptake at 24 h: 0.26 ± 0.04 %ID/g
  tissue uptake at 72 h: 0.09 ± 0.03 %ID/g
  tissue uptake at 120 h: 0.04 ± 0.02 %ID/g
Intestine uptake
  tissue uptake at 1 h: 1.19 ± 0.25 %ID/g
  tissue uptake at 4 h: 0.61 ± 0.17 %ID/g
  tissue uptake at 24 h: 0.18 ± 0.07 %ID/g
  tissue uptake at 72 h: 0.14 ± 0.11 %ID/g
  tissue uptake at 120 h: 0.04 ± 0.03 %ID/g
Kidneys uptake
  tissue uptake at 1 h: 13.2 ± 1.87 %ID/g
  tissue uptake at 4 h: 9.23 ± 2.18 %ID/g
  tissue uptake at 24 h: 5.8 ± 1.24 %ID/g
  tissue uptake at 72 h: 2.56 ± 0.62 %ID/g
  tissue uptake at 120 h: 1.3 ± 0.55 %ID/g
Lacrimal uptake
  tissue uptake at 1 h: 0.27 ± 0.08 %ID/g
  tissue uptake at 4 h: 0.15 ± 0.07 %ID/g
  tissue uptake at 24 h: 0.04 ± 0.03 %ID/g
  tissue uptake at 72 h: 0.01 ± 0.01 %ID/g
Liver uptake
  tissue uptake at 1 h: 2.67 ± 0.37 %ID/g
  tissue uptake at 4 h: 1.89 ± 0.69 %ID/g
  tissue uptake at 24 h: 0.69 ± 0.27 %ID/g
  tissue uptake at 72 h: 0.36 ± 0.13 %ID/g
  tissue uptake at 120 h: 0.23 ± 0.13 %ID/g
Lungs uptake
  tissue uptake at 1 h: 8.06 ± 1.48 %ID/g
  tissue uptake at 4 h: 4.35 ± 0.82 %ID/g
  tissue uptake at 24 h: 0.72 ± 0.19 %ID/g
  tissue uptake at 72 h: 0.18 ± 0.04 %ID/g
  tissue uptake at 120 h: 0.06 ± 0.03 %ID/g
Muscle uptake
  tissue uptake at 1 h: 1.15 ± 0.19 %ID/g
  tissue uptake at 4 h: 0.58 ± 0.13 %ID/g
  tissue uptake at 24 h: 0.08 ± 0.02 %ID/g
  tissue uptake at 72 h: 0.02 ± 0.01 %ID/g
  tissue uptake at 120 h: 0.01 ± 0.01 %ID/g
Pancreas uptake
  tissue uptake at 1 h: 1.41 ± 0.31 %ID/g
  tissue uptake at 4 h: 0.74 ± 0.18 %ID/g
  tissue uptake at 24 h: 0.12 ± 0.03 %ID/g
  tissue uptake at 72 h: 0.04 ± 0.01 %ID/g
  tissue uptake at 120 h: 0.02 ± 0.02 %ID/g
Salivary uptake
  tissue uptake at 1 h: 2.43 ± 0.33 %ID/g
  tissue uptake at 4 h: 1.31 ± 0.3 %ID/g
  tissue uptake at 24 h: 0.28 ± 0.04 %ID/g
  tissue uptake at 72 h: 0.11 ± 0.03 %ID/g
  tissue uptake at 120 h: 0.05 ± 0.04 %ID/g
Seminal uptake
  tissue uptake at 1 h: 1.22 ± 0.4 %ID/g
  tissue uptake at 4 h: 0.49 ± 0.1 %ID/g
  tissue uptake at 24 h: 0.08 ± 0.02 %ID/g
  tissue uptake at 72 h: 0.04 ± 0.01 %ID/g
  tissue uptake at 120 h: 0.02 ± 0.01 %ID/g
Spleen uptake
  tissue uptake at 1 h: 1.64 ± 0.83 %ID/g
  tissue uptake at 4 h: 0.96 ± 0.29 %ID/g
  tissue uptake at 24 h: 0.45 ± 0.1 %ID/g
  tissue uptake at 72 h: 0.38 ± 0.15 %ID/g
  tissue uptake at 120 h: 0.49 ± 0.38 %ID/g
Stomach uptake
  tissue uptake at 1 h: 0.59 ± 0.12 %ID/g
  tissue uptake at 4 h: 0.42 ± 0.15 %ID/g
  tissue uptake at 24 h: 0.25 ± 0.13 %ID/g
  tissue uptake at 72 h: 0.28 ± 0.33 %ID/g
  tissue uptake at 120 h: 0.05 ± 0.08 %ID/g
Tail uptake
  tissue uptake at 1 h: 6.11 ± 3.05 %ID/g
  tissue uptake at 4 h: 2.66 ± 0.9 %ID/g
  tissue uptake at 24 h: 0.31 ± 0.06 %ID/g
  tissue uptake at 72 h: 0.19 ± 0.12 %ID/g
  tissue uptake at 120 h: 0.08 ± 0.06 %ID/g
Testes uptake
  tissue uptake at 1 h: 2.17 ± 0.32 %ID/g
  tissue uptake at 4 h: 1.83 ± 0.58 %ID/g
  tissue uptake at 24 h: 0.64 ± 0.53 %ID/g
  tissue uptake at 72 h: 0.24 ± 0.04 %ID/g
  tissue uptake at 120 h: 0.14 ± 0.06 %ID/g
Thyroid uptake
  tissue uptake at 1 h: 2.9 ± 0.41 %ID/g
  tissue uptake at 4 h: 1.62 ± 0.42 %ID/g
  tissue uptake at 24 h: 0.37 ± 0.06 %ID/g
  tissue uptake at 72 h: 0.15 ± 0.01 %ID/g
  tissue uptake at 120 h: 0.08 ± 0.05 %ID/g
Tumor uptake
  tissue uptake at 1 h: 27.2 ± 7.55 %ID/g
  tissue uptake at 4 h: 47.6 ± 13.5 %ID/g
  tissue uptake at 24 h: 57.2 ± 15.3 %ID/g
  tissue uptake at 72 h: 59.3 ± 16 %ID/g
  tissue uptake at 120 h: 61.9 ± 22.3 %ID/g
